The values below come from patent US20250320284A1 (AC IMMUNE, published 2025).

Broadly, the EC50 is the midpoint of the concentration-response curve. The term koff denotes the rate constant with which the complex falls apart. A high value points to fast dissociation. The term kon denotes a measure of how fast the partners come together.

Experiment [1] has as its target T1, human ASC (apoptosis associated speck-like protein containing a caspase-recruitment domain) (human, UniProt Q9ULZ3 1-195).
T1 construct: recombinant hASC in ELISA and SPR; endogenous ASC (cytoplasmic or specks) in Western blot and immunofluorescence; also called hASC; PYCARD
The experiment is described as follows: ELISA, coated hASC. (In general: ELISA stands for enzyme-linked immunosorbent assay.)

For experiment [2], the target named is T2, PYD domain of human ASC (human, UniProt Q9ULZ3 1-91, limits assumed).
T2 construct: biotinylated in BLI; His/MBP-tagged in the alanine ELISA; also called hPYD; human PYD
The experiment is described as follows: BLI binning on PYD, competitor 23E5F7-AB2.

Experiment [3] has as its target T3, mouse ASC (mouse, UniProt Q9EPB4 1-193).
T3 sequence: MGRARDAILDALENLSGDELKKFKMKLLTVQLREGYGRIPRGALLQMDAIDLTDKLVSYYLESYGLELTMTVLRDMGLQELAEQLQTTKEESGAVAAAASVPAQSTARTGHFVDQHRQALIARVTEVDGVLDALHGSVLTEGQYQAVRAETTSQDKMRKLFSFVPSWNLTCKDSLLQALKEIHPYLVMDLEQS
Description: cell-based or functional assay.

The target of experiment [4] is T2, PYD domain of human ASC. The experiment is described as follows: ELISA, coated hPYD.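 Note: monoclonal antibody binding to plate-coated human ASC PYD measured by ELISA, with a phosphatase substrate absorbance read-out and EC50 from a variable slope curve fit.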
The target in experiment [5] is T2, PYD domain of human ASC. The experiment is described as follows: BLI binning on PYD, competitor 2617C3A8-AB1.
Experiment [6] deals with T2, PYD domain of human ASC. Description: BLI binning on PYD, competitor 26A1G2-AB1.
Experiment [7] has as its target T2, PYD domain of human ASC. Description: BLI binning on PYD, competitor 2626B9D3-AB1.
In experiment [8] the target is T2, PYD domain of human ASC. The experiment is described as follows: BLI binning on PYD, competitor 401H9B7-AB1.
In experiment [9] the target is T1, human ASC (apoptosis associated …). Description: cell-based or functional assay.
For experiment [10], the target named is T3, mouse ASC. The experiment is described as follows: cell-based or functional assay. The source holds these as a separate data set.
The target of experiment [11] is T2, PYD domain of human ASC. Description: BLI binning on PYD, competitor 22D3A6-AB1.
The target in experiment [12] is T2, PYD domain of human ASC. The experiment is described as follows: BLI binning on PYD, competitor 2610H7D3-AB1.
The target in experiment [13] is T2, PYD domain of human ASC. Description: BLI binning on PYD, competitor 416E6G4-AB1.
In experiment [14] the target is T1, human ASC (apoptosis associated …). The experiment is described as follows: SPR affinity mode, mAb captured.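 Note: Single-cycle SPR kinetics with mAbs captured on goat anti-mouse antibody, double-referenced against blank flow cell and buffer cycle, fitted by a 1:1 kinetic model.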
Experiment [15] deals with T3, mouse ASC. The experiment is described as follows: SPR affinity mode, mAb captured.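 Note: Single-cycle SPR kinetics with mAbs captured on goat anti-mouse antibody, double-referenced against blank flow cell and buffer cycle, fitted by a 1:1 kinetic model.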
Experiment [16] has as its target T4, CARD domain of human ASC (human, UniProt Q9ULZ3 107-195).
T4 construct: biotinylated in BLI; also called hCARD; human CARD
T4 sequence: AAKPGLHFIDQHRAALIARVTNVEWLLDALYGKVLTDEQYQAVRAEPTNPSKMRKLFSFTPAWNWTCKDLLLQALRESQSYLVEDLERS
Description: sandwich ELISA on MBP-tagged protein captured by anti-MBP antibody, signal as % of hPYD-WT.

Experiment [17] addresses T3, mouse ASC. The experiment is described as follows: ELISA, coated mASC.
Experiment [18] has as its target T2, PYD domain of human ASC. The experiment is described as follows: BLI binning on PYD, competitor 31F10C5-AB1.
Experiment [19] concerns the target T4, CARD domain of human ASC. The experiment is described as follows: BLI binning on CARD, competitor 2609F4A9-Ab1.
In experiment [20] the target is T4, CARD domain of human ASC. Description: BLI binning on CARD, competitor 2504F3D9-Ab1.
The target of experiment [21] is T4, CARD domain of human ASC. Description: BLI binning on CARD, competitor 2622E12F11-Ab1.
Experiment [22] addresses T1, human ASC (apoptosis associated …). The experiment is described as follows: cell-based or functional assay. This is another data set of the same source.
The target of experiment [23] is T3, mouse ASC. The experiment is described as follows: SPR affinity mode, steady-state fit, apparent KD; SPR affinity mode, mAb captured, mASC in solution; steady-state fit, apparent KD.
In experiment [24] the target is T4, CARD domain of human ASC. Description: BLI binning on CARD, competitor 2629E8D1-Ab1.
Experiment [25] addresses T4, CARD domain of human ASC. The experiment is described as follows: BLI binning on CARD, competitor 32B6C7-Ab1.
In experiment [26] the target is T4, CARD domain of human ASC. Description: BLI binning on CARD, competitor 18F4C12-Ab1.
Experiment [27] deals with T3, mouse ASC. The experiment is described as follows: ELISA, coated mASC; ELISA on mASC protein.
Experiment [28] concerns the target T4, CARD domain of human ASC. Description: ELISA, coated hCARD.

T2 sequence (Q9ULZ3 1-91 limits assumed): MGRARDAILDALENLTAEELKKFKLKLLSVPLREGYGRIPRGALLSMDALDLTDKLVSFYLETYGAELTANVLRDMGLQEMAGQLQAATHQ

B1: ACI-8016-26A1G2-AB1 (antibody, V domains shown)
VH: QVQLQQSGAELARPGASVKLSCKASGYNFTTYGINWVKQRTGQGLEWIGKIYPRSGNTHNNENFKGKATLTADTSSSTAYMDLRSLTSEDSAVYFCARSPYAFYSSSYWYFDVWGTGTTVTVSS
VL: DIKMTQSPSSMYASLGERVTITCKASQDIKSYLSWYQQKPWKSPKTLIYYATSLADGVPSRFSGSGSGQDYSLTISSLESDDTATYYCLQHGESPFTFGSGTKLEIK
notes: also called 936.26A1G2; ACI-8016-26A1G2-AB1_hmG2c
Consider B1, for which the values for the EC50 in experiment [1], in [4] and in [17] were 0.13 nM, 0.12 nM and 0.15 nM, respectively. Further, the normalized binding response in experiment [2] is 18%; in experiment [5], 23%; in experiment [6], 3%; in experiment [7], 33%; in experiment [8], 63%; in [11], 23%. Moreover, the values for the normalized binding response in experiment [12], in experiment [13] and in [18] were 22%, 14% and 19%, respectively. In addition, the “% IL-1β inhibition, mouse primary microglia, 420 nM mAb” value (from here on “% IL-1β inhibition”) in experiment [3] was 52.1%. Besides, in experiment [9], the “Human ASC polymerization assay, IC50” value came to 4.9 nM. In addition, the “Mouse ASC polymerization assay, IC50” value in experiment [10] came out at 24.8 nM. Besides, the Kd was 1.87 nM in experiment [14] and 3.81 nM in [15]. For the same molecule, the koff in experiment [14] is 8.05e-05 s⁻¹; in experiment [15], 0.000101 s⁻¹. Besides, the kon was 42000 M⁻¹ s⁻¹ in experiment [14] and 27600 M⁻¹ s⁻¹ in [15]. In addition, the binding result in experiment [16] is given as “no binding”.

B2: ACI-8016-2609F4A9-AB1 (antibody, V domains shown)
VH: QVQLQQSDAELVKPGASVKISCKVSGYALTDHSIHWMKQRPEQGLAWIGYMYPGDGSANYNDKFRGKATLTADISSSTAYMHLNSLTSEDSAVYFCTRPYSFGSSYDYFGYWGQGTTLTVSS
VL: DIQMNQSPSSLSASLGDTITITCHASQNINVWLNWYQQKPGNIPKLLIYKASKLHTGVSSSFSGSGSGTGFTLTISSLQPEDIGTYYCQQGQSYPYTFGGGTKLEIK
Regarding B2, the normalized binding response in experiment [19] was 0%; in [20], 0%; in experiment [21], 103%; in [24], 0%; in experiment [25] it was 7%; in experiment [26], 96%. Further, the half-maximal effective concentration (EC50) in experiment [1] stood at 0.12 nM; in experiment [27], 0.3 nM; in experiment [28] it was 0.11 nM. Besides, in experiment [3], the “% IL-1β inhibition” value stood at 82.3%. The binding result in [4] is reported as “no binding”. The “IL-1β release, human monocytic cell line, IC50” value (shortened to “IL-1β release”) in experiment [22] was determined as 16.2 nM. The Kd in [23] worked out at 168 nM; in experiment [14], 24.9 nM. The “Human ASC polymerization assay, IC50” value in experiment [9] stood at 32.8 nM. In experiment [14], this molecule registered a koff of 0.00783 s⁻¹. This molecule also showed a kon in [14] of 297000 M⁻¹ s⁻¹.

B3: ACI-8016-2629E8D1-AB1 (antibody, V domains shown)
VH: QVQLQQSDAELVKPGGSVKISCKVSGYTFTDHTIHWMKQRPEQGLEWIGNIYPGDGSTMYNEKFKGKATLTADKSSSTAYMHLNSLTSEDSAVYFCARPYYFGSASYYFGYWGQGTTLTVSS
VL: DIQMNQSPSSLSASLGDTITITCHASQNINVWLNWYQQKPGNIPKLLIYKASNLHTGVPSRFSGSGSGIGFTLTISSLQPEDIATYYCQQGQSYPLTFGGGTKLEIK
notes: also called ACI-8016-2629E8D1-AB1_rmG2a_01
As to B3, the normalized binding response was -2% in experiment [19]; -2% in experiment [20]; 102% in [21]; 0% in experiment [24]; 3% in experiment [25]; 95% in experiment [26]. Further, the EC50 in experiment [1] came to 0.11 nM; in [27] it was 0.22 nM; in experiment [28], 0.12 nM. In addition, the “% IL-1β inhibition” value in experiment [3] is 88.8%. For the same molecule, the binding result in experiment [4] is on record as “no binding”. For the same molecule, in experiment [22], the “IL-1β release” value turned out to be 14.9 nM. Also, the Kd was 134 nM in [23] and 1.38 nM in experiment [14]. The “Human ASC polymerization assay, IC50” value in experiment [9] turned out to be 14.1 nM. The molecule further showed a koff in experiment [14] of 0.000182 s⁻¹. The kon in [14] worked out at 140000 M⁻¹ s⁻¹.

B4: ACI-8016-2622E12F11-AB1 (antibody, V domains shown)
VH: RVQLQQAGAELVKPGASVKVSCKASGNTFNNYWIYWVKQRPGQGLEWIGRIHPSDSGTNYNQKFEGKATLTVDKSSGTAYMQLSSLTAEDSAVYYCALLSLYAMDSWGHGTSVTVSS
VL: DIVLTQSPASLAVSLGQRATISCRASKSVSSFGYNYIHWYLQKPGQPPKLLIYLASDLESGVPARFSGSGSGTGFTLNIHPVEEEDAATYYCQHSREFPWTFGGGTKLEIK
Turning to B4, the normalized binding response was 74% in [19]; -2% in experiment [20]; 0% in experiment [21]; 87% in experiment [24]; 91% in [25]; 18% in experiment [26]. Besides, the results for the EC50 in [1], in [27] and in experiment [28] were 0.11 nM, 0.16 nM and 0.12 nM, respectively. For the same molecule, the “% IL-1β inhibition” value in experiment [3] turned out to be 95.9%. The binding result in [4] is given as “no binding”. In addition, the “IL-1β release” value in experiment [22] was found to be 30.8 nM. In addition, the Kd in [23] came out at 176 nM; in experiment [14] it was 3.66 nM. Also, in experiment [9], the “Human ASC polymerization assay, IC50” value came to 19.4 nM. The koff in experiment [14] is 0.000786 s⁻¹. This molecule also showed a kon in [14] of 235000 M⁻¹ s⁻¹.
